Biological target: 14-3-3 (endogenous, detected with a 14-3-3 antibody; isoform not told) (UniProt Q04917)
Experiment: anti-FLAG co-immunoprecipitation, western blot densitometry
Settings: HeLa cells, transfected; mean ± SD of three experiments; read off a plot

UniProt Q04917, sequence (Q04917 whole entry, canonical isoform): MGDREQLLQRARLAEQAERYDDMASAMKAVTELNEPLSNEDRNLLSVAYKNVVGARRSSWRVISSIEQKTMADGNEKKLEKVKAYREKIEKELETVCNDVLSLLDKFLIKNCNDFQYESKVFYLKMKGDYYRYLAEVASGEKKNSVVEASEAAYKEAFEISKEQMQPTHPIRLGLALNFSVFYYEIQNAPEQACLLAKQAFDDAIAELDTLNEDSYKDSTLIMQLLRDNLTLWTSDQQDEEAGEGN

Work on “3xFLAG-BPLF1 (amino acid residues 1-235), catalytically active N-terminal deconjugase domain of the Epstein-Barr virus large tegument protein BPLF1 (from UniProt P03186) D86R; D90R” yielded a ratio to parent of 0.49.

Source: publication PMC6874091
